Residue numbers refer to the chain shown, from its start. Numbers in names are those of the source. Read-outs that look alike come from different tables or passages of the source.

This is an account of results in article PMC3253924 (DNA Repair, 2011).

Data set [1] concerns the molecule itself. The data set can be described thus: crystal structure.
Data set [2] deals with the molecule itself. The data set can be described thus: crystal structure. The source holds these as a separate data set.

B1: mouse TREX1 catalytic core (residues 1-242), wild type (enzyme, UniProt Q91XB0 1-242, looked up)
chain: MGSQTLPHGHMQTLIFLDLEATGLPSSRPEVTELCLLAVHRRALENTSISQGHPPPVPRPPRVVDKLSLCIAPGKACSPGASEITGLSKAELEVQGRQRFDDNLAILLRAFLQRQPQPCCLVAHNGDRYDFPLLQTELARLSTPSPLDGTFCVDSIAALKALEQASSPSGNGSRKSYSLGSIYTRLYWQAPTDSHTAEGDVLTLLSICQWKPQALLQWVDEHARPFSTVKPMYGTPATTGTT
Consider B1, for which the binding result in “crystal structure [1]” is given as “binds”.

B2: mouse TREX1 catalytic core (residues 1-242), D200N mutant (enzyme, UniProt Q91XB0 1-242, looked up)
chain: B1 chain with D200N
With B2, the binding result in the data set “crystal structure [2]” is recorded as “binds”.

B3: mouse TREX1 catalytic core (residues 1-242), D18N mutant (enzyme, UniProt Q91XB0 1-242, looked up)
chain: B1 chain with D18N
For B3, in “crystal structure [2]”, the binding result is “binds”.

B4: mouse TREX1 catalytic core (residues 1-242), V201D mutant (enzyme, UniProt Q91XB0 1-242, looked up)
chain: B1 chain with V201D
On to B4, for which the binding result in “crystal structure [2]” was “binds”.

B5: mouse TREX1 catalytic core (residues 1-242), D200H mutant (enzyme, UniProt Q91XB0 1-242, looked up)
chain: B1 chain with D200H
Turning to B5, the binding result in the data set “crystal structure [2]” is recorded as “binds”.
